Two substances from patent US20210155682A1, “COMPOSITIONS AND METHODS FOR REDUCTION OF LIPOPROTEIN A FORMATION AND TREATMENT OF AORTIC VALVE SCLEROSIS AND AORTIC STENOSIS” (Abcentra, LLC, priority 2018, published 2021) can be followed below.

“Also recorded” adds a separate entry of the source.

Assay [1] concerns the target T1, Flu-LDL (Homo sapiens, UniProt P04114).
T1 construct: from tissue; host or cells: plasma of a healthy donor
As to the kind of experiment: Antibody interference with Flu-LDL fluorescence (Flu-LDL alone). As to conditions: Flu-LDL 100 nM; orticumab 0.1-1000 nM; FIG. 5.

For assay [2], the target named is T2, non-covalent binding between apo(a) and LDL (Homo sapiens, UniProt P04114).
T2 construct: made in house; host or cells: apo(a): stably-expressing HEK293 cell lines; LDL: plasma of a healthy donor
Briefly: Fluorescence assay of non-covalent binding: quenching of Flu-LDL by 17K r-apo(a).

Assay [3] concerns the target T3, covalent binding between apo(a) and LDL (Lp(a) formation) (Homo sapiens, UniProt P04114).
T3 construct: made in house; host or cells: apo(a): stably-expressing HEK293 cell lines; LDL: plasma of a healthy donor
Briefly: Covalent Lp(a) assembly assay, Western blot (% r-Lp(a)). It is filed as biochemical. Conditions: for percent inhibition of Lp(a) formation: FIG. 10; for Reduction of covalent Lp(a) compared with control antibodies: 4 hours, orticumab 0.01-10 μM, FIG. 8. The method, then:
Purified LDL (100 nM) and 17K apo(a) (5 nM) were incubated with conditioned serum-free medium (OptiMEM; Gibco) from HEK293 cells in the presence of 0, 0.01, 0.1, 1.0, and 10 μM of orticumab at 37° C. The reactions were mixed thoroughly every hour and stopped after 4 or 8 hrs by adding 4×SDS-PAGE sample buffer. Samples were then boiled for 5 min at 95° C. and subjected to SDS-PAGE on 6% polyacrylamide gel. After electrophoresis, separated proteins were electroblotted onto a PVDF membrane, blocked, and incubated with a monoclonal antibody (A5) specific for apo(a). HRP-conjugated goat anti-mouse IgG secondary antibody was used to develop a signal in the presence of a chemiluminescence reagent and images were captured using a ChemiDoc system (Bio-Rad). Band intensity (BI) of western-blots were quantified using IMAGELAB software for recombinant Lp(a) formation using the following equation: % r-Lp(a)=BI(Lp(a))/[BI(Lp(a))+BI(apo(a))]. A Two-Way ANOVA with Tukey post-hoc test was used to analyze the data in GraphPad Prism 7.0.
Covalent binding between apo(a) and LDL was assessed over time by appearance of Lp(a) protein on a Western blot. Using serum-free HEK293 cell-conditioned medium, Lp(a) formation was evaluated after incubation of 17K r-apo(a) with LDL from 0-8 hours; isolated Lp(a), 17K apo(a) alone, and media alone were used as controls.
Next, the effect of orticumab on inhibition of covalent binding between apo(a) and LDL was assessed by Western blot analysis. 17K r-apo(a) (5 nM) was incubated with LDL (100 nM) in serum free HEK293 cell-conditioned medium for 4 hours at 37° C. in the presence of orticumab at 0.1, 1, 5, and 10 μM.
To determine whether inhibition of Lp(a) formation occurs at a later time point when Lp(a) formation appears to be maximal, the Western blot experiments were repeated after a 0- and 8-hour incubation of 5 nM 17K r-apo(a) and 100 nM LDL in the presence of orticumab at 0.01, 0.1, 1, and 10 μM in serum free HEK293 cell-conditioned medium (FIG. 9). The results were then quantified (FIG. 10) and analyzed.

The target of assay [4] is purified human LDL, carrying apolipoprotein B100 (human) (UniProt P04114). Briefly: Western blot of covalent assembly of 5 nM 17K r-apo(a) with 100 nM LDL, 8 h, 10 µM orticumab.
Assay [5] has the same target. Briefly: Western blot of covalent assembly of 5 nM 17K r-apo(a) with 100 nM LDL, 8 h, orticumab at '1' (unit missing, by context 1 µM).
For assay [6] the target is unchanged. As to the kind of experiment: Western blot of covalent assembly of 5 nM 17K r-apo(a) with 100 nM LDL, 8 h.
Assay [7] shares this target. Briefly: Western blot of covalent assembly of 5 nM 17K r-apo(a) with 100 nM LDL, 8 h, 0.1 µM orticumab.

T3 sequence (P04114 28-4563): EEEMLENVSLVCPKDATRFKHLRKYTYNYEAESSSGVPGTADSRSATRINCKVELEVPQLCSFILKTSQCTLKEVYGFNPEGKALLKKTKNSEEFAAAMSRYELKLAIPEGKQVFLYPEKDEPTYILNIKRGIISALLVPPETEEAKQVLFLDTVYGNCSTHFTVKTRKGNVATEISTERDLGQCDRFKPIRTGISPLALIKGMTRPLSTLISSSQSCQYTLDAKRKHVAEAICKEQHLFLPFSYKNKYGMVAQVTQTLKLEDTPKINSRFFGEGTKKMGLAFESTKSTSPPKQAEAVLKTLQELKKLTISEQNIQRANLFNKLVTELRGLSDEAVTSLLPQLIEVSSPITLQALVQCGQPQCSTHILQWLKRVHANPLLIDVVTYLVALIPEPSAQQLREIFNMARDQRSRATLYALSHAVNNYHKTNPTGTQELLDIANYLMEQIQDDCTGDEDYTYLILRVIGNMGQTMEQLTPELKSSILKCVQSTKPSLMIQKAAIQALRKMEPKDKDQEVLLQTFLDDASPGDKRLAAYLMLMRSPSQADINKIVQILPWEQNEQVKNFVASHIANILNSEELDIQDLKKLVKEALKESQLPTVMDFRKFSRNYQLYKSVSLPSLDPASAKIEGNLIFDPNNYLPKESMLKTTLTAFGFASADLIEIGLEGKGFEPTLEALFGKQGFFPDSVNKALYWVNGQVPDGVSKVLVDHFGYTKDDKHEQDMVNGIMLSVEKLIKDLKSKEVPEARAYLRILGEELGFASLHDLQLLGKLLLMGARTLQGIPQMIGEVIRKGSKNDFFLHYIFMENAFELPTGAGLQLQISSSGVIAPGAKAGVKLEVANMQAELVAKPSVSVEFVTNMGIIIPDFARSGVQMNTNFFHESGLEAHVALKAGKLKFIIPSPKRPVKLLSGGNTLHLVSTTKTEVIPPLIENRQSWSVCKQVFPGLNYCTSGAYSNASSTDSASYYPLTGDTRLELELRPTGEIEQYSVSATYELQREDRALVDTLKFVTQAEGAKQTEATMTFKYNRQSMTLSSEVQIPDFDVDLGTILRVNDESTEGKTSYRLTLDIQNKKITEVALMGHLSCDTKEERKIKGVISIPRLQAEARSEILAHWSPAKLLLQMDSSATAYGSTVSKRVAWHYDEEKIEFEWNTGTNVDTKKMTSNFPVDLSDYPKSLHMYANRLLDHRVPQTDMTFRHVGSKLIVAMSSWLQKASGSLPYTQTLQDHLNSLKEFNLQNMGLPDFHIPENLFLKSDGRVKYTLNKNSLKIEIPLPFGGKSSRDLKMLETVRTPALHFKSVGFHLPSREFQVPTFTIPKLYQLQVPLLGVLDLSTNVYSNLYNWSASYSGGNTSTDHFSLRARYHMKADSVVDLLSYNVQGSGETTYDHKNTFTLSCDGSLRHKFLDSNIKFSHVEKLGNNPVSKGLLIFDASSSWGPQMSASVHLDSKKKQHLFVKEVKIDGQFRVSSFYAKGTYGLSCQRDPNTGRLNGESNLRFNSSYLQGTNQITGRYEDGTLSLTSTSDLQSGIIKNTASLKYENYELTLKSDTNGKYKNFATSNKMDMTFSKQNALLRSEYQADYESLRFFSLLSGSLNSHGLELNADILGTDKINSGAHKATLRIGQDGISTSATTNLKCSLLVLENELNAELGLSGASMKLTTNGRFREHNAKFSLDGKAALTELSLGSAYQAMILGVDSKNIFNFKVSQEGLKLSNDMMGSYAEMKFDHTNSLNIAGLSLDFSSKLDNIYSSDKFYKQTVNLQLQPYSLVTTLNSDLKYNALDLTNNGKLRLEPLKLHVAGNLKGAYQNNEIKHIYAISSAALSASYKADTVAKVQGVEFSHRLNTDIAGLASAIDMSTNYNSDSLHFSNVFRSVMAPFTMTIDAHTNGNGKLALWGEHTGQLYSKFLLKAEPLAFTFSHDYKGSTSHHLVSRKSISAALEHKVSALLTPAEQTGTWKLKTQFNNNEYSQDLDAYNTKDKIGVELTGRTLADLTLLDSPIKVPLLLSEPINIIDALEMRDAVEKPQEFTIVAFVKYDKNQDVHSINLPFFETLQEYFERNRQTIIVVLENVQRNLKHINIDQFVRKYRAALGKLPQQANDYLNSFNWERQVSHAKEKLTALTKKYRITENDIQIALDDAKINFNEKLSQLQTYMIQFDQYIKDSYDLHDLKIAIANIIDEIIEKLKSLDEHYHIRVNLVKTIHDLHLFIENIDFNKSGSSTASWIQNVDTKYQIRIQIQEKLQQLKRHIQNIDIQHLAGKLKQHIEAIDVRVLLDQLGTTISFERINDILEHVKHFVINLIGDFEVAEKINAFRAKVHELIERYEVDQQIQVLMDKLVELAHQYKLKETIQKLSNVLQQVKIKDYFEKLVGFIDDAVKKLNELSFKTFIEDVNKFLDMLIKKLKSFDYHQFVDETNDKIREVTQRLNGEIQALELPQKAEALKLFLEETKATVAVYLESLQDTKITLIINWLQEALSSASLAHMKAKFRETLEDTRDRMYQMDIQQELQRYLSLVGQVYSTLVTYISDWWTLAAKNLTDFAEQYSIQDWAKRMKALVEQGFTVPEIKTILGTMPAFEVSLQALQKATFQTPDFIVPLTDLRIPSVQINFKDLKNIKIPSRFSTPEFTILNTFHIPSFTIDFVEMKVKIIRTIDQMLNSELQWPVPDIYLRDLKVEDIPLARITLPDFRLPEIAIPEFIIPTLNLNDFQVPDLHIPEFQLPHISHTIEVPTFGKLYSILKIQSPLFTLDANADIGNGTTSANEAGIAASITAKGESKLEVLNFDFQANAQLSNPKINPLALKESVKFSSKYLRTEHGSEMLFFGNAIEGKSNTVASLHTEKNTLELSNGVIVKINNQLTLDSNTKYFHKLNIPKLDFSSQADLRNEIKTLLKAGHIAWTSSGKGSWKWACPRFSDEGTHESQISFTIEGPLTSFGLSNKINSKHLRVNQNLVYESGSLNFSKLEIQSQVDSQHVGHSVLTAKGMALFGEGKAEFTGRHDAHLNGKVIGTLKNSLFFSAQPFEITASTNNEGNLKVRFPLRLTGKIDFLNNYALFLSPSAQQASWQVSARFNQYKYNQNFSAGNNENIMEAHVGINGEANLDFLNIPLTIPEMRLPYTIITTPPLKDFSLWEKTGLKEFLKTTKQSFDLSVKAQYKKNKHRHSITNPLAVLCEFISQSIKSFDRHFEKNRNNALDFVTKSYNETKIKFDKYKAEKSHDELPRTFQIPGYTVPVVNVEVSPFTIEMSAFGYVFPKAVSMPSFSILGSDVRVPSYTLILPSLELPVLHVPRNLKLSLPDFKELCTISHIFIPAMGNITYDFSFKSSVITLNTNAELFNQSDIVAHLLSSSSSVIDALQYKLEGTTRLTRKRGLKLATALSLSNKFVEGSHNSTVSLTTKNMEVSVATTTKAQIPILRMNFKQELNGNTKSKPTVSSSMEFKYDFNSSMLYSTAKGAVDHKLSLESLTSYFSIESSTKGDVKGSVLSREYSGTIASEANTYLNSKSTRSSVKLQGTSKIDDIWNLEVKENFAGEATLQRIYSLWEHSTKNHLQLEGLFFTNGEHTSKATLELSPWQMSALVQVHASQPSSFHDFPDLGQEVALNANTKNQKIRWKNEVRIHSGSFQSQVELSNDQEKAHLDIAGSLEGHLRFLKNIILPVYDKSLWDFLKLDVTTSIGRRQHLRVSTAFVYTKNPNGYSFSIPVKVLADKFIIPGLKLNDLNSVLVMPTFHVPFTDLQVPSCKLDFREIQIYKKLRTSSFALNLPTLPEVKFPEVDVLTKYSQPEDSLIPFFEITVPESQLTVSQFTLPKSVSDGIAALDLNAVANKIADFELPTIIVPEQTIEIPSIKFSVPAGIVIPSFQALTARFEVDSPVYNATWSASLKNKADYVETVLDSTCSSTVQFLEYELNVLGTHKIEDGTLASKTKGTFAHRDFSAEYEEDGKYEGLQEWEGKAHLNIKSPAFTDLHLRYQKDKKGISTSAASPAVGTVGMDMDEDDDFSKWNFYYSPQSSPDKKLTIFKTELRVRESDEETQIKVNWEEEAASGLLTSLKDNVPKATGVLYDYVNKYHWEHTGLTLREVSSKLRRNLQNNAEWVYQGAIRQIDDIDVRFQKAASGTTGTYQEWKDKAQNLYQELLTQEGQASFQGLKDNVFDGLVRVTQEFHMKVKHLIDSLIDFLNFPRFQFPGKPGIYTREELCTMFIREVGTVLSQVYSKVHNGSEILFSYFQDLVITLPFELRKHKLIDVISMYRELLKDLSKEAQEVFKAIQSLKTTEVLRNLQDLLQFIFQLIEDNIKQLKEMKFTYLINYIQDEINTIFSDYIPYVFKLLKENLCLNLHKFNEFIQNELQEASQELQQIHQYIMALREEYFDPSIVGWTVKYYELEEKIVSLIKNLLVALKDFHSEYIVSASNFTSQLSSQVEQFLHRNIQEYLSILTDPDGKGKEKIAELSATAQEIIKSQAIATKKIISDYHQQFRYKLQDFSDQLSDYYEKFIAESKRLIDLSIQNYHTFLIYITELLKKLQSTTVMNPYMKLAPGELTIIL
T2 sequence (P04114 28-4563): as above
Sequence of purified human LDL, carrying apolipoprotein B100 (human) (P04114 28-4563): as above
T1 sequence (P04114 28-4563): as above

Consider “orticumab: human monoclonal antibody against apoB100 epitope P45 (residues 661-680); heavy chain SEQ ID No: 10, light chain SEQ ID No: 11”, for which the “Effect on fluorescence of Flu-LDL alone” value in assay [1] was “increased the fluorescence of Flu-LDL to a higher level; also recorded: enhanced fluorescent signal”. Also, the “Concentration at which the antibody interfered with fluorescence” value in assay [2] (Flu-LDL 30 nM, 17K r-apo(a) 300 nM, FIG. 4A) is no more than 0.4 nM. Further, the “Concentration of maximum response in dose-response titration” value in assay [2] (de-quenching of Flu-LDL fluorescence, FIG. 3) turned out to be 1000 nM. In addition, the “Inhibition of non-covalent binding between apo(a) and LDL, overall statement” value in assay [2] (fluorescence assay, summary of Example 3) was “very effective in inhibiting non-covalent binding”. For the same substance, in assay [2] (orticumab 0-1000 nM, Flu-LDL 50 nM, 17K r-apo(a) 500 nM, FIG. 3), the “Alleviation of quenching of Flu-LDL by 17K apo(a), antibody titration” value is recorded as “able to alleviate the quenching; also recorded: much lower than that of the polyclonal anti-apoB antibody or EACA”. Further, in assay [2] (orticumab 1000 nM, Flu-LDL 50 nM, 17K r-apo(a) 0-1000 nM, FIG. 2), the “Inhibition of non-covalent apo(a)/Flu-LDL binding in 17K apo(a) titration” value was “inhibited the binding; also recorded: on par with the anti-apo(a) antibody; also recorded: interfered with the apo(a) and Flu-LDL interaction”. Moreover, the “De-quenching of Flu-LDL fluorescence at lower concentrations” value in assay [2] (orticumab 0.4096-100 nM, Flu-LDL 30 nM, 17K r-apo(a) 300 nM, FIG. 4A) is “not able to de-quench; also recorded: no effect on de-quenching the fluorescence”. Further, the “percent inhibition of Lp(a) formation” value in assay [3] (0.01 μM orticumab, 8-hour incubation, 17K r-apo(a) 5 nM, LDL 100 nM) is reported as 21.37%; in assay [3] (0.1 μM orticumab, 8-hour incubation, 17K r-apo(a) 5 nM, LDL 100 nM) it was 25.8%; in assay [3] (10 μM orticumab, 8-hour incubation, 17K r-apo(a) 5 nM, LDL 100 nM), 73.46%; in assay [3] (orticumab "At 1" (unit not given), 8-hour incubation, 17K r-apo(a) 5 nM, LDL 100 nM), 34.99%. In addition, in assay [3] (10 μM orticumab, 4 hours at 37° C., 17K r-apo(a) 5 nM, LDL 100 nM, FIG. 7), the “Lp(a) band on Western blot” value is “Disappearance of the Lp(a) band”. In addition, the “Inhibition of Lp(a) formation, in words” value in assay [3] (8-hour incubation, orticumab 0.01, 0.1, 1 and 10 μM, FIG. 9, 10) is given as “significantly inhibited Lp(a) formation; also recorded: decreased Lp(a) covalent assembly at the lowest concentration tested”. The “Reduction of covalent Lp(a) compared with control antibodies” value in assay [3] (17K r-apo(a) 5 nM, LDL 100 nM) is recorded as “behaves similarly in reducing covalent Lp(a)”; in assay [3] (17K r-apo(a) 5 nM, LDL 100 nM, listed as Orticumab), “as effective as the anti-apoB or anti-apo(a) control antibodies”. The “Inhibition of covalent binding between apo(a) and LDL, overall statement” value in assay [3] (orticumab 0.01, 0.1, 1 and 10 μM, Western blot) is reported as “inhibited”.
With orticumab (antibody), the percent inhibition of Lp(a) formation in assay [4] turned out to be 73.5%; in assay [5], 35%; in assay [6], 21.4%; in assay [7], 25.8%.
